Residue numbers refer to the chain shown, from its start.
Assays:
Assay in all cases: pull-down
Maf1-id D248A/D250A = biological target: T1, Maf1-id D248A/D250A (S. cerevisiae, UniProt P41910 1-395, Δ64-194 | D248A | D250A)
T1 sequence (looked up): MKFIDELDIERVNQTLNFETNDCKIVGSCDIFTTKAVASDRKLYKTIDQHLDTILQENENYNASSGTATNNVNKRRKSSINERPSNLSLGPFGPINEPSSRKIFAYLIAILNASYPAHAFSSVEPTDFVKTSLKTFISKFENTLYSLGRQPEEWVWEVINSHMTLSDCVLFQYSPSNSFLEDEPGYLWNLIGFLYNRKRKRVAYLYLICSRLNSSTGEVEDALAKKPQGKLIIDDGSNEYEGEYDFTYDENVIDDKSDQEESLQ

Maf1-id T33E/T34E = biological target: T2, Maf1-id T33E/T34E (S. cerevisiae, UniProt P41910 1-395, Δ64-194 | T33E | T34E)
T2 sequence (looked up): T1 sequence (looked up) with T33E, T34E, A117D, A119D

Maf1-id (Maf1 Δ64-194) = biological target: T3, Maf1-id (Maf1 Δ64-194) (S. cerevisiae, UniProt P41910 1-395, Δ64-194)
T3 sequence (looked up): T1 sequence (looked up) with A117D, A119D

Maf1-id L318S/W319S = biological target: T4, Maf1-id L318S/W319S (S. cerevisiae, UniProt P41910 1-395, Δ64-194 | L318S | W319S)
T4 sequence (looked up): T1 sequence (looked up) with A117D, A119D, L187S, W188S

binding result (Maf1-id D248A/D250A): binds
binding result (Maf1-id T33E/T34E): binds
binding result (Maf1-id (Maf1 Δ64-194)): binds
binding result (Maf1-id L318S/W319S): binds
B1: C34 1-156 (the two N-terminal C34 WH domains), His-tagged (domain or fragment, S. cerevisiae, UniProt P32910 1-156, looked up)
chain: MSGMIENGLQLSDNAKTLHSQMMSKGIGALFTQQELQKQMGIGSLTDLMSIVQELLDKNLIKLVKQNDELKFQGVLESEAQKKATMSAEEALVYSYIEASGREGIWSKTIKARTNLHQHVVLKCLKSLESQRYVKSVKSVKFPTRKIYMLYSLQPS

— paper doi:10.1101/859132 (bioRxiv, 2019)
